PMC8000974, “Tumor Activated Cell Penetrating Peptides to Selectively Deliver Immune Modulatory Drugs” (Pharmaceutics, 2021)

Tests used:
[1] = system: LL2 Lewis lung carcinoma cells; assay: Cell culture Cy5 imaging of peptide uptake; format: cell-based; details: murine LL2 cells, 1 μM peptide in 1% FBS, 2 h at room temperature then 2 h in media, fixed
Experimental: (§1) Murine B16F10 melanoma and LL2 Lewis lung carcinoma cell lines were purchased from ATCC. MC38 colon adenocarcinoma cell line was purchased from Kerafast (Boston, MA, USA). Cell lines were grown in Dulbecco’s modified eagle’s medium (DMEM) + 10% fetal bovine serum (FBS) media. All cell lines were maintained at low passage and routinely tested for mycoplasma. For Cy5 imaging, cells were resuspended and incubated with Cy5 labeled r9 or ACPP at 1 μM in 1% FBS. The cells were incubated for 2 h under rotation and covered to be protected from light at room temperature. Cells were then spun down (5 min at 2000 rpm) and resuspended in cell media for an additional 2 h. The cells were then fixed with 4% paraformaldehyde in phosphate buffered saline (PBS), washed twice with PBS and incubated with 4′,6-diamidino-2-phenylindole (DAPI) stain (1:500). Finally, the cells were washed with PBS and mounted on slides using Fluoromount mounting media (Sigma, St Louis, MI, USA). Cells were imaged using a Keyence microscope with a 100× oil objective and high-resolution settings.

[2] = system: MC38 colon adenocarcinoma cells; assay: Cell culture Cy5 imaging of peptide uptake; format: cell-based; details: murine MC38 cells, 1 μM peptide in 1% FBS, 2 h at room temperature then 2 h in media, fixed
Experimental: as §1

[3] = system: B16F10 melanoma cells; assay: Cell culture Cy5 imaging of peptide uptake; format: cell-based; details: murine B16 cells, 1 μM peptide in 1% FBS, 2 h at room temperature then 2 h in media, fixed
Experimental: as §1

[4] = system: B16F10 melanoma tumors; assay: In vivo murine therapy experiments; set-up: species or system mice; details: for Tumor control (tumor volume) vs control untreated: day 5 and day 9, 10 tumors per group
Experimental: Female six-week-old C57Bl6 albino mice were injected with 50,000 B16F10 melanoma cells subcutaneously in both thighs using a 1:1 mixture of PBS:Matrigel. The tumors were palpable five days after implant at which point treatment was initiated. Due to the rapid growth of B16F10 tumor in mice, dosing began when tumors reached an average size of 30 ± 13 mm^3. Animals were divided into four treatment groups: control, intratumoral (i.t.) resiquimod (30 nmoles per tumor), i.t. ACPP-resiquimod (30 nmoles per tumor), or i.v. ACPP-resiquimod (60 nmoles per mouse). Mice were given free drug or ACPP conjugated on day 5 and day 9. Each treatment group had five mice with 10 tumors. Tumor volumes were measured bi-weekly and mice weighed weekly. Mice were sacrificed when the tumor size reached 1500 mm^3.

[5] = system: B16F10 melanoma tumors; assay: Tissue drug concentration (LC-MS/MS) after i.v. ACPP-resiquimod; format: in vivo; details: B16F10 tumor bearing C57Bl6 albino mice, 30 nmoles ACPP-resiquimod i.v., 6 h post injection, free resiquimod by LC-MS/MS
Experimental: Female six-week-old C57Bl6 albino mice were injected with 50,000 B16F10 melanoma cells subcutaneously into both thighs using a 1:1 PBS:Matrigel. Mice were i.v. injected with 30 nmoles of ACPP-resiquimod in 100 µL sterile water and 6 h post injection mice were sacrificed. Tumor and adjacent muscle tissue were excised, weighed, and flash frozen in liquid N2. A mixture of 44 mL H2O, 44 mL acetonitrile, and 2 mL glacial acetic acid was used as the diluent. Nine times w/v of diluent was added to the frozen tissue. Tissues were dissociated on ice with a Sonic dismemberator Model 500 (Fisher Scientific) tissue probe homogenizer using 5 s pulse of 20% amplitude four to five times. The samples were spun down to obtain clear supernatant. For muscle tissue, addition passage through a 0.22 µm Nylon filter (Costar Spin X; purchased from Sigma, St Louis, MI, USA) was used to obtain clear supernatant. A fixed volume of tissue supernatant from each sample was injected on the LC-MS/MS (Agilent 1100 LC with MSD Trap XCT, Santa Clara, CA, USA). Each sample was run in duplicate on the LC-MS/MS to determine reproducibility of integrated ion current for each sample. […] Concentration of unknown samples were then calculated (Graphpad PRISM).

Compound	Cell uptake (Cy5 fluorescence microscopy) [1]	Cell uptake (Cy5 fluorescence microscopy) [2]	Cell uptake (Cy5 fluorescence microscopy) [3]	Tumor control (tumor volume) vs control untreated ([4]; i.t. 30 nmoles per tumor)	Mouse survival, dose response ([4]; i.t. injection, 30 nmoles compared to 10 nmoles, Log-rank (Mantel–Cox) test)	Antitumor efficacy compared with free resiquimod ([4]; ACPP-resiquimod i.t. or i.v. vs i.t. free resiquimod, total drug per animal constant)	Tumor control (tumor volume) vs control untreated ([4]; i.v. 60 nmoles per mouse)	Resiquimod drug concentration in tumor tissue [5]	Resiquimod drug concentration in peri-tumoral muscle tissue ([5]; negative value from calibration background noise)
CCN1C(=CC=CC=CC2=[N+](CCCCCC(=O)NCCN3C(=O)CC(SC[C@@H](NC(=O)[C@@H](CCCNC(=N)N)NC(=O)[C@@H](CCCNC(=N)N)NC(=O)[C@@H](CCCNC(=N)N)NC(=O)[C@@H](CCCNC(=N)N)NC(=O)[C@@H](CCCNC(=N)N)NC(=O)[C@@H](CCCNC(=N)N)NC(=O)[C@@H](CCCNC(=N)N)NC(=O)[C@@H](CCCNC(=N)N)NC(=O)[C@H](N)CCCNC(=N)N)C(N)=O)C3=O)c3ccc(S(=O)(=O)[O-])cc3C2(C)C)C(C)(C)c2cc(S(=O)(=O)O)ccc21 (stereo partly shown) [Cy5 labeled r9]	readily taken up	readily taken up	readily taken up	–	–	–	–	–	–
CCOCc1nc2c(N)nc3ccccc3c2n1CC(C)(C)O [resiquimod, Resiquimod, reference compound]	–	–	–	improved tumor control	statistically improved survival	–	–	–	–
cyclo(RGD)fc-MC-HN-peg8-e9-oPLGC(Me)AG-r9-c-(MC-VC-PABC-resiquimod-CONH2 [ACPP-resiquimod]	–	–	–	improved tumor control	–	as efficacious as free resiquimod	improved tumor control	1142.3 ± 111.7 nM	-5.8 ± 3.5 nM
